The values that follow come from patent US20260337278 (published 2026).

Where two headings read alike, the source gives them in different places.

Common to all, as to assay: BLI
Experiment [1] concerns the target EGFR (wild-type, His-tagged or biotinylated) (human, UniProt P00533).
For experiment [2], the target named is T1, EGFRvIII (human, UniProt P00533).
Experiment [3] has as its target T1, EGFRvIII. The source holds these as a separate data set.

B1: SI-95X26 (antibody)
chain 1: not shown
chain 2: DILMTQSPSSMSVSLGDTVSITCHSSQDINSNIGWLQQRPGKSFKGLIYHGTNLDDEVPSRFSGSGSGADYSLTISSLESEDFADYYCVQYAQFPWTFGGGTKLEIKGGGGSGGGGSGGGGSDVQLQESGPSLVKPSQSLSLTCTVTGYSITSDFAWNWIRQFPGNKLEWMGYISYSGNTRYNPSLKSRISITRDTSKNQFFLQLNSVTIEDTATYYCVTAGRGFPYWGQGTLVTVSASGSGSGGGGGSGGGGSGGGGSDIQMTQSPSSLSASVGDRVTITCRSSQNIVHSNGNTYLDWYQQTPGKAPKLLIYKVSNRFSGVPSRFSGSGSGTDFTFTISSLQPEDIATYYCFQYSHVPWTFGQGTKLQITRTVAAPSVFIFPPSDEQLKSGTASVVCLLNNFYPREAKVQWKVDNALQSGNSQESVTEQDSKDSTYSLSSTLTLSKADYEKHKVYACEVTHQGLSSPVTKSFNRGEC
As a reminder, the Kd is a measure of binding affinity in units of concentration. Low readings indicate tighter binding, high ones weaker binding. B1: the results for the equilibrium dissociation constant (Kd) (in experiment [1]; with EGFRvIII [2]) were 9.35 nM and 0.281 nM, respectively.

B2: SI-95X19 (antibody)
chain 1: not shown
chain 2: DIQMTQSPSSLSASVGDRVTITCRSSQNIVHSNGNTYLDWYQQTPGKAPKLLIYKVSNRFSGVPSRFSGSGSGTDFTFTISSLQPEDIATYYCFQYSHVPWTFGQGTKLQITRTVAAPSVFIFPPSDEQLKSGTASVVCLLNNFYPREAKVQWKVDNALQSGNSQESVTEQDSKDSTYSLSSTLTLSKADYEKHKVYACEVTHQGLSSPVTKSFNRGEC
Consider B2, for which the values for the Kd (in experiment [1]; with EGFRvIII [2]) were 5.01 nM and 0.676 nM, respectively.

B3: SI-95X22 (antibody)
chain 1: not shown
chain 2: DIQMTQSPSSLSASVGDRVTITCRSSQNIVHSNGNTYLDWYQQTPGKAPKLLIYKVSNRFSGVPSRFSGSGSGTDFTFTISSLQPEDIATYYCFQYSHVPWTFGQGTKLQITRTVAAPSVFIFPPSDEQLKSGTASVVCLLNNFYPREAKVQWKVDNALQSGNSQESVTEQDSKDSTYSLSSTLTLSKADYEKHKVYACEVTHQGLSSPVTKSFNRGEC
On to B3, for which the results for the Kd (in experiment [1]; with EGFRvIII [2]) were 6.1 nM and 0.834 nM, respectively.

B4: SI-95X17 (antibody)
chain 1: not shown
chain 2: DIQMTQSPSSLSASVGDRVTITCRSSQNIVHSNGNTYLDWYQQTPGKAPKLLIYKVSNRFSGVPSRFSGSGSGTDFTFTISSLQPEDIATYYCFQYSHVPWTFGQGTKLQITRTVAAPSVFIFPPSDEQLKSGTASVVCLLNNFYPREAKVQWKVDNALQSGNSQESVTEQDSKDSTYSLSSTLTLSKADYEKHKVYACEVTHQGLSSPVTKSFNRGEC
Take B4: the Kd worked out at 6.02 nM in experiment [1] and 0.642 nM with EGFRvIII [2].

B5: SI-95X2 (antibody)
chain 1: not shown
chain 2: DIQMTQSPSSLSASVGDRVTITCRSSQNIVHSNGNTYLDWYQQTPGKAPKLLIYKVSNRFSGVPSRFSGSGSGTDFTFTISSLQPEDIATYYCFQYSHVPWTFGQGTKLQITRTVAAPSVFIFPPSDEQLKSGTASVVCLLNNFYPREAKVQWKVDNALQSGNSQESVTEQDSKDSTYSLSSTLTLSKADYEKHKVYACEVTHQGLSSPVTKSFNRGEC
Turning to B5, the Kd in experiment [1] stood at 5.53 nM; with EGFRvIII [2] it was 1.15 nM.

B6: ABT-806 V7 (antibody, V domains shown)
VH: QVQLQESGPSLVKPSQTLSLTCTVSGYSITSDFAWNWIRQFPGRKLEWMGYISYSGNTRYNPSLKSRFTISRDTSKNQFYLKLRSVTIADTAVYYCVTAGRGFPYWGQGTLVTVSS
VL: DIQMTQSPSSVSASVGDRVTITCHSSQDINSNIGWLQQKPGKAPKGLIYHGTNLDDGVPSRFSGSGSGADYTLTISSLQPEDFATYYCVQYAQFPWTFGQGTKVEIKR
In the experiment with EGFRvIII [3], B6 gave a Kd of 37.8 nM.

B7: ABT-806 V6 (antibody, V domains shown)
VH: QVQLQESGPGLVKPSQSLSLTCTVSGYSITSDFAWNWIRQAPGKGLEWVGYISYSGNTRYNPSLKSRFTISRDTSKNQFYLQLNSVTAEDTAVYYCVTAGRGFPYWGQGTLVTVSS
VL: DIVMTQSPSSVSLSLGDRVTITCHSSQDINSNIGWLQQKPGKAFKGLIYHGTNLDDGVPSRFSGSGSGADYTLTISSLQAEDFATYYCVQYAQFPWTFGPGTKLEIKR
Molecule B7 gave a Kd with EGFRvIII [3] of 18.4 nM.

B8: ABT-806 V9 (antibody, V domains shown)
VH: QVQLQESGPSLVKPSQTLSLTCTVSGYSITSDFAWNWIRQFPGRKLEWMGYISYSGNTRYNPSLKSRFTISRDTSKNQFYLKLRSVTIADTAVYYCVTAGRGFPYWGQGTLVTVSS
VL: DIVMTQSPSSVSLSLGDRVTITCHSSQDINSNIGWLQQKPGKAFKGLIYHGTNLDDGVPSRFSGSGSGADYTLTISSLQAEDFATYYCVQYAQFPWTFGPGTKLEIKR
Turning to B8, in the experiment with EGFRvIII [3], binding was put at a Kd of 16.1 nM.

B9: ABT-806 V1 (antibody, V domains shown)
VH: QVQLQESGPGLVKPSQSLSLTCTVSGYSITSDFAWNWIRQPPGKGLEWIGYISYSGNTRYNPSLKSRVTISRDTSKNQFSLQLNSVTAEDTAVYYCVTAGRGFPYWGQGTLVTVSS
VL: DIQMTQSPSSVSASVGDRVTITCHSSQDINSNIGWLQQKPGKAPKGLIYHGTNLDDGVPSRFSGSGSGADYTLTISSLQPEDFATYYCVQYAQFPWTFGQGTKVEIKR
In the experiment with EGFRvIII [3], B9 returned a Kd of 29.5 nM.

B10: ABT-806 V2 (antibody, V domains shown)
VH: QVQLQESGPGLVKPSQSLSLTCTVSGYSITSDFAWNWIRQPPGKGLEWIGYISYSGNTRYNPSLKSRVTISRDTSKNQFSLQLNSVTAEDTAVYYCVTAGRGFPYWGQGTLVTVSS
VL: DIVMTQSPSSLSVSPGDRVTITCHSSQDINSNIGWLQQKPGKAPKGLIYHGTNLDDGVPSRFSGSGSGADYTLTISSLEPEDFAVYYCVQYAQFPWTFGQGTKVEIKR
Regarding B10, binding with EGFRvIII [3] was characterised by a dissociation constant (Kd) of 26.6 nM.

B11: ABT-806 V4 (antibody, V domains shown)
VH: QVQLQESGPGLVKPSQSLSLTCTVSGYSITSDFAWNWIRQAPGKGLEWVGYISYSGNTRYNPSLKSRFTISRDTSKNQFYLQLNSVTAEDTAVYYCVTAGRGFPYWGQGTLVTVSS
VL: DIQMTQSPSSVSASVGDRVTITCHSSQDINSNIGWLQQKPGKAPKGLIYHGTNLDDGVPSRFSGSGSGADYTLTISSLQPEDFATYYCVQYAQFPWTFGQGTKVEIKR
For the molecule B11, in the experiment with EGFRvIII [3], binding was put at a Kd of 23.2 nM.

B12: ABT-806 V5 (antibody, V domains shown)
VH: QVQLQESGPGLVKPSQSLSLTCTVSGYSITSDFAWNWIRQAPGKGLEWVGYISYSGNTRYNPSLKSRFTISRDTSKNQFYLQLNSVTAEDTAVYYCVTAGRGFPYWGQGTLVTVSS
VL: DIVMTQSPSSLSVSPGDRVTITCHSSQDINSNIGWLQQKPGKAPKGLIYHGTNLDDGVPSRFSGSGSGADYTLTISSLEPEDFAVYYCVQYAQFPWTFGQGTKVEIKR
Consider B12, for which binding with EGFRvIII [3] was put at a Kd of 30.7 nM.

B13: ABT-806 V3 (antibody, V domains shown)
VH: QVQLQESGPGLVKPSQSLSLTCTVSGYSITSDFAWNWIRQPPGKGLEWIGYISYSGNTRYNPSLKSRVTISRDTSKNQFSLQLNSVTAEDTAVYYCVTAGRGFPYWGQGTLVTVSS
VL: DIVMTQSPSSVSLSLGDRVTITCHSSQDINSNIGWLQQKPGKAFKGLIYHGTNLDDGVPSRFSGSGSGADYTLTISSLQAEDFATYYCVQYAQFPWTFGPGTKLEIKR
Molecule B13 returned a Kd with EGFRvIII [3] of 15.4 nM.

B14: ABT-806 V8 (antibody, V domains shown)
VH: QVQLQESGPSLVKPSQTLSLTCTVSGYSITSDFAWNWIRQFPGRKLEWMGYISYSGNTRYNPSLKSRFTISRDTSKNQFYLKLRSVTIADTAVYYCVTAGRGFPYWGQGTLVTVSS
VL: DIVMTQSPSSLSVSPGDRVTITCHSSQDINSNIGWLQQKPGKAPKGLIYHGTNLDDGVPSRFSGSGSGADYTLTISSLEPEDFAVYYCVQYAQFPWTFGQGTKVEIKR
On to B14, for which the Kd with EGFRvIII [3] amounted to 31.9 nM.
